Reference: patent US20170137467A1 (CHROMOTEK, published 2017)
Changes are numbered by the printed parent chain. Square brackets hold non-standard residues; d marks the D form. GABA = NCCCC(=O)O

T1: BC2T W10A
T1 construct: positional scanning library member
T1 peptide: Ac-PDRKAAVSHAQQ-NH2

T2: BC2T Q11A
T2 construct: positional scanning library member
T2 peptide: Ac-PDRKAAVSHWAQ-NH2

T3: BC2T H9G
T3 construct: positional scanning library member
T3 peptide: Ac-PDRKAAVSGWQQ-NH2

T4: BC2T H9V
T4 construct: positional scanning library member
T4 peptide: Ac-PDRKAAVSVWQQ-NH2

T5: BC2T Q11V
T5 construct: positional scanning library member
T5 peptide: Ac-PDRKAAVSHWVQ-NH2

T6: BC2T S8M
T6 construct: positional scanning library member
T6 peptide: Ac-PDRKAAVMHWQQ-NH2

T7: BC2T Q12M
T7 construct: positional scanning library member
T7 peptide: Ac-PDRKAAVSHWQM-NH2

T8: BC2T H9P
T8 construct: positional scanning library member
T8 peptide: Ac-PDRKAAVSPWQQ-NH2

T9: BC2T H9F
T9 construct: positional scanning library member
T9 peptide: Ac-PDRKAAVSFWQQ-NH2

T10: BC2T Q11W
T10 construct: positional scanning library member
T10 peptide: Ac-PDRKAAVSHWWQ-NH2

T11: BC2T Q11S
T11 construct: positional scanning library member
T11 peptide: Ac-PDRKAAVSHWSQ-NH2

T12: BC2T H9N
T12 construct: positional scanning library member
T12 peptide: Ac-PDRKAAVSNWQQ-NH2

T13: BC2T S8Q
T13 construct: positional scanning library member
T13 peptide: Ac-PDRKAAVQHWQQ-NH2

T14: BC2T S8C(Abu) (also: Abu described as gamma-amino butyric acid)
T14 construct: positional scanning library member
T14 peptide: Ac-PDRKAAV[GABA]HWQQ-NH2

T15: BC2T W10C(Abu) (SMILES …)
T15 construct: positional scanning library member
T15 peptide: Ac-PDRKAAVSH[GABA]QQ-NH2

T16: BC2T Q12H
T16 construct: positional scanning library member
T16 peptide: Ac-PDRKAAVSHWQH-NH2

B1: BC2 nanobody (VHH)
VHH: QVQLVESGGGLVQPGGSLTLSCTASGFTLDHYDIGWFRQAPGKEREGVSCINNSDDDTYYADSVKGRFTIFMDNAKDTVYLQMNSLKPEDTAIYYCAEARGCKRGRYEYDFWGQGTQVTVSS
notes: immobilised on beads in this assay; also called BC2-Nb; BC2 nanotrap (immobilised)
B2: BC2-NbR106S (VHH)
VHH: B1 VHH with R106S
notes: headlock mutant of BC2-Nb; immobilised on beads in this assay

Assays:
Assay in all cases: positional peptide library pulldown on immobilised Nb, LC-MS of supernatant; signal ratio to control GFP-Nb (1 = not captured, near 0 = captured)
BC2T W10A = biological target: T1, BC2T W10A
From the text: (§1) In total, 12 different BC2T libraries displaying all 20 proteinogenic amino acids in one single position of the peptide were used in immunoprecipitation experiments. […] The direct comparison with the GFP-Nb made it possible to determine the quantitative degree of peptide capture without the need of labeled standards. […] The more peptide was captured the more the value approximates 0. It was not possible to discriminate between isoleucine (I) and leucine (L) peptide versions since these peptides are isobaric.
(§2) To investigate the binding specificity of the BC2T and derived mutants peptide libraries for each amino acid position of the sequence […] (SEQ ID NO:4) were synthesized with acetyl and amide groups located at the N-termini or C-termini respectively (Intavis). […] Incubations were performed in 300 μl PBS/0.01% CHAPS for 1 h on a HulaMixer (Life Technologies). Subsequent to a centrifugation step 10 μl supernatant were analyzed in a LC-MS procedure. Peptides were separated using an UltiMate3000 RSLCnano System (Thermo Scientific), composed of a C18 PepMap100μ-Precolumn (300 μm×5 mm; particle size: 5 μm; pore size: 100 Å—Thermo Scientific) and a C18 analytical column (Acclaim Rapid Separation LC (RSLC) Column: 150 mm×5 mm; particle size: 2.2 μm; pore size: 100 Å—Thermo Scientific). A step gradient was applied starting at 8% and ending after 20 min at 30% eluent B (80% acetonitrile, 20% H₂O, 0.1% formic acid).

BC2T Q11A = biological target: T2, BC2T Q11A
From the text: as §1, §2

BC2T H9G = biological target: T3, BC2T H9G
From the text: as §1, §2

BC2T H9V = biological target: T4, BC2T H9V
From the text: as §1, §2

BC2T Q11V = biological target: T5, BC2T Q11V
From the text: as §1, §2

BC2T S8(I/L1) = biological target: T17, BC2T S8(I/L1) (N-terminal acetyl; C-terminal amide)
T17 construct: positional scanning library member; I or L not resolved
From the text: as §1, §2

BC2T H9(I/L1) = biological target: T18, BC2T H9(I/L1) (N-terminal acetyl; C-terminal amide)
T18 construct: positional scanning library member; I or L not resolved
From the text: as §1, §2

BC2T S8(I/L2) = biological target: T19, BC2T S8(I/L2) (N-terminal acetyl; C-terminal amide)
T19 construct: positional scanning library member; I or L not resolved
From the text: as §1, §2

BC2T W10(I/L2) = biological target: T20, BC2T W10(I/L2) (N-terminal acetyl; C-terminal amide)
T20 construct: positional scanning library member; I or L not resolved
From the text: as §1, §2

BC2T Q11(I/L2) = biological target: T21, BC2T Q11(I/L2) (N-terminal acetyl; C-terminal amide)
T21 construct: positional scanning library member; I or L not resolved
From the text: as §1, §2

BC2T S8M = biological target: T6, BC2T S8M
From the text: as §1, §2

BC2T Q12M = biological target: T7, BC2T Q12M
From the text: as §1, §2

BC2T H9P = biological target: T8, BC2T H9P
From the text: as §1, §2

BC2T H9F = biological target: T9, BC2T H9F
From the text: as §1, §2

BC2T Q11W = biological target: T10, BC2T Q11W
From the text: as §1, §2

BC2T Q11S = biological target: T11, BC2T Q11S
From the text: as §1, §2

BC2T H9N = biological target: T12, BC2T H9N
From the text: as §1, §2

BC2T S8Q = biological target: T13, BC2T S8Q
From the text: as §1, §2

BC2T S8C(Abu) = biological target: T14, BC2T S8C(Abu)
From the text: as §1, §2

BC2T W10C(Abu) = biological target: T15, BC2T W10C(Abu)
From the text: as §1, §2

BC2T Q12H = biological target: T16, BC2T Q12H
From the text: as §1, §2

| Binder | ratio (BC2T W10A) | ratio (BC2T Q11A) | ratio (BC2T H9G) | ratio (BC2T H9V) | ratio (BC2T Q11V) | ratio (BC2T S8(I/L1)) | ratio (BC2T H9(I/L1)) | ratio (BC2T S8(I/L2)) | ratio (BC2T W10(I/L2)) | ratio (BC2T Q11(I/L2)) | ratio (BC2T S8M) | ratio (BC2T Q12M) | ratio (BC2T H9P) | ratio (BC2T H9F) | ratio (BC2T Q11W) | ratio (BC2T Q11S) | ratio (BC2T H9N) | ratio (BC2T S8Q) | ratio (BC2T S8C(Abu)) | ratio (BC2T W10C(Abu)) | other results |
| --- | --- | --- | --- | --- | --- | --- | --- | --- | --- | --- | --- | --- | --- | --- | --- | --- | --- | --- | --- | --- | --- |
| B1 | 1 | 0.1 | 0.4 | 0.2 | 0.1 | 0.4 | 0.3 | 0.7 | 1 | 0.1 | 0.6 | 0.1 | 0.8 | 0.1 | 0 | 0.1 | 0.1 | 0.7 | 0 | 1 | ratio (BC2T Q12H): 0.1 |
| B2 | 1 | 0.4 | 0.8 | 0.6 | 0.2 | 0.6 | 0.5 | 0.9 | 1.1 | 0.4 | 1 | 0.3 | 1 | 0.3 | 0.1 | 0.2 | 0.3 | 0.9 | 0.1 | 1 | ratio (BC2T Q12H): 0.3 |
